Test results taken from the supplement of paper PMC9170038.

Tested on: MS2 coat protein
Test: apparent KD of MS2 coat protein; designed switch direction (-1 OFF switch, 1 ON switch): 1; higher = weaker reporter binding
How it was run: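 Designed RNA switches were transcribed on Illumina chips by stalled E. coli RNA polymerase and titrated with SNAP-549-labelled MS2 coat protein from 0.7 or 1.5 nM, doubling to 3 µM. Step length ran from 0.8–1.5 h at the lowest concentration to 10–20 min at the highest. The apparent KD is the median over clusters for each design, from curve-fitted normalised cluster fluorescence.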

[1] = Eterna round: R95, input ligand: FMN 200 uM
[2] = Eterna round: R95, input ligand: microRNA oligo, concentration not stated
[3] = Eterna round: R95, input ligand: none
[4] = input ligand: microRNA oligo, concentration not stated

Sequence	apparent KD of MS2 coat protein [1]	apparent KD of MS2 coat protein [2]	apparent KD of MS2 coat protein [3]	apparent KD of MS2 coat protein (input ligand: FMN 200 uM)	apparent KD of MS2 coat protein [4]	apparent KD of MS2 coat protein (input ligand: none)
GGCUAUCGGCGUACCGAUAGCUGGUAUGUACAUGAGGAUCACCCAUGUCAUGUACAGGCUUGUUGCUCGUCUUAUUG [JL-shm-2.38 JL mod] (puzzle: Sensor for hsa-mir-208a)	144 nM	33 nM	165 nM			
GGGAGAGCCGCAGGAUAUGGUGAGGAUUACCCACUAGAAGGGUGGACAUGAGAAUCGAACAUGAGGAUCACCCAUGUUCUGAGG (Eterna round: R96, puzzle: Same State NG 1)				200 nM	219 nM	386 nM
GGGAGAGGCGCAGGAUAUGGUGAGGAUCACCCACUAGAAGGGUGCACAUGAGAAUCGGACAUGAGGAUCACCCAUGUUUGGCGC (Eterna round: R96, puzzle: Same State NG 1)				393 nM	121 nM	565 nM
GGGAGAGGCGCAGGAUAUGGUGAGGAUUACCCACUAGAAGGGUGCACAUGAGAAUCGAACAUGAGGAUCACCCAUGUUCUGAGC (Eterna round: R96, puzzle: Same State NG 1)				189 nM	187 nM	230 nM
GGUAGGUUACUACCAAACAUGAGGAUCACCCAUGUAAAUGGGAAGGAUAUGGUACCUAUUUGGUACCAGAAGGUCUAAUUAAUU [JL Fiskers NG3ss - 2 mod 1] (Eterna round: R96, puzzle: Same State NG 3)				332 nM	479 nM	553 nM
GGUAGGUUACUACCAAACAUGAGGAUCACCCAUGUAAGUGGGAAGGAUAUGGUACCUUUUAGGUACCAGAAGGUCCAUAAAAUU [JL Fiskers NG3ss - 2 mod 7] (Eterna round: R96, puzzle: Same State NG 3)				314 nM	355 nM	2090 nM
GGUAGGUUACUACCAAACAUGAGGAUCACCCAUGUAAGUGGGAAGGAUAUGGUACCUUUUAGGUACCAGAAGGUCCAUAUAGUA [JL Fiskers NG3ss - 2 mod 10] (Eterna round: R96, puzzle: Same State NG 3)				254 nM	783 nM	1000 nM
GGUAUUAACACAGGAUAUGCUUACGAAACGUAAGCAGAAGGGUGAACAUGAGGAUCACCCAUGUUUGUACCAGGGCGUGAGCCC [JL SSNG1 1.72] (Eterna round: R96, puzzle: Same State NG 1)				349 nM	632 nM	923 nM
GGUCCAGCCUGAGCUGGACAAAAGCAUGUACAUGAGGAUCACCCAUGUUCAUGUACAAGCUUUUUGCUCGUCUUACC [salish99_208a_r3_090x] (puzzle: Sensor for hsa-mir-208a)	570 nM	15.9 nM	823 nM			
GGUCCAGCCUGAGCUGGACAAAAGCAUGUACAUGAGGAUCACCCAUGUUCAUGUACAAGCUUUUUGCUCGUCUUACG [salish99_208a_r3_086] (puzzle: Sensor for hsa-mir-208a)	571 nM	19.2 nM	844 nM			
GGUCCAGCCUGAGCUGGACAAAAGCAUGUACAUGAGGAUCACCCAUGUUCAUGUACAAGCUUUUUGCUCGUCUUAGC [salish99_208a_r3_071] (puzzle: Sensor for hsa-mir-208a)	534 nM	12.7 nM	468 nM			
GGUCGGACAUGAGGAUCACCCAUGUGGUGAGCGGAAACGCCAUAGGAUAUCUGUCCGAAAAGGUCAGAGAAGGGUGAACCGACC [Fiskers NG3ss - 68] (Eterna round: R96, puzzle: Same State NG 3)				184 nM	311 nM	135 nM
GGUCGGACUCACAUGAGGAUCACCCAUGUUCCGGAAACGGGAUAGGAUAUCUGUCCGAAAAGGUCAGAGAAGGGUCUACCGACC [Fiskers NG3ss - 55] (Eterna round: R96, puzzle: Same State NG 3)				1050 nM	236 nM	519 nM
GGUGCCAAAUAAGCCUACAUGAGGAUCACCCAUGUAUGUAGGCAGGAUAUCGUAUGCAAAGCAUACGAGAAGGGCCUAGGCACC [Mat - Same State NG 3 - JL Mod - D63] (Eterna round: R96, puzzle: Same State NG 3)				18.8 nM	23.7 nM	41.3 nM
GGUGCCAAUAAAGCCUACAUGAGGAUCACCCAUGUAUGUAGGUAGGAUAUCGUUUGCUUUGCAAACGAGAAGGGCCUAGGCACC [JL SSNG3 1.20] (Eterna round: R96, puzzle: Same State NG 3)				22.5 nM	40.2 nM	48.3 nM
GGUGCGAAUAAAGCCUACAUGAGGAUCACCCAUGUAUGUAGGCAGGAUAUCGUUUGCUUUGCAAACGAGAAGGGCUGUCGCACC [JL SSNG3 1.16] (Eterna round: R96, puzzle: Same State NG 3)				21.9 nM	49 nM	70.7 nM
GGUGGGUUACUACCAACACAUGAGGAUCACCCAUGUUUUGGGAAGGAUAUGGUACCUAUUUGGUACCAGAAGGUCCGGUUGGUG [salish99_SSNG3_r04_704] (Eterna round: R96, puzzle: Same State NG 3)				47.8 nM	100 nM	100 nM
GGUGGGUUACUACCCACACAUGAGGAUCACCCAUGUAUUGGGAAGGAUAUGGUGCCUGUGUGGUACCAGAAGGUCGUGAAGGUG [SS-NG3-LRO19] (Eterna round: R96, puzzle: Same State NG 3)				580 nM	312 nM	3470 nM
GGUGGGUUGCUACCAACACAUGAGGAUCACCCAUGUUUUGGGAAGGAUAUGGUACCUAUUUGGUACCAGAAGGUCCCGUUGGUG [salish99_SSNG3_r04_706] (Eterna round: R96, puzzle: Same State NG 3)				37.6 nM	40.4 nM	63.6 nM
GGUGGGUUGCUGCCGGCACAUGAGGAUCACCCAUGUUUUGGGAAGGAUAUGGUACCUGUUUGGUGCCAGAAGGUCCCGUUGGUG [salish99_SSNG3_r04_711] (Eterna round: R96, puzzle: Same State NG 3)				864 nM	526 nM	522 nM
GUAAAACAUGAGGAUCACCCAUGUAAUAAUAUGGGAGGAUAUCAGAUUUAAUUUAAUUUAUGAGAAGGCCUAAAUU [Mat - Same State 1 - Mod of Eli - D62] (puzzle: Same State 1)	43.4 nM	488 nM	596 nM			
GUAAAACAUGAGGAUCACCCAUGUAAUAAUAUGGGAGGAUAUCUGAUUUAAUUUAAUUUAAGAGAAGGCCUAAAUG [Mat - Same State 1 - Mod of Eli - D58] (puzzle: Same State 1)	39.9 nM	318 nM	608 nM			
GUAAAACAUGAGGAUCACCCAUGUCAUCUAAGUCGAGGAUAUGGGAAUUAAUUAAUUAAACCAGAAGGCGAAAUUG [Mat - Same State 1 - D97] (puzzle: Same State 1)	44.6 nM	844 nM	606 nM			
GUAAUACAUGAGGAUCACCCAUGUCAAUGUAGUCGAGGAUAUGGGUAGCUAUGAGGCUUACUAGAAGGCGACGAGC [Same State 1 - Mod of Vinnie Teenbexe v.5] (Eterna round: R96, puzzle: Same State 1)				46.5 nM	208 nM	249 nM
GUAAUACAUGAGGAUCACCCAUGUCAAUGUAGUCGAGGAUAUGGGUAGCUAUGAGGCUUACUAGAAGGCGACGAGC [Same State 1 - Mod of Vinnie Teenbexe v.5] (puzzle: Same State 1)	28 nM	176 nM	359 nM			
GUACAGAUCACAGGAUAUCACGUCGUUUAGACGUGAGAAGGGUGAUCACACAUGAAUAUUAAUACAUGAGGAUCACCCAUGUAC [SSNG1/16-A3] (Eterna round: R96, puzzle: Same State NG 1)					22.1 nM	
GUACAGAUUAUAGGAUAUCACGUCGUUUAGACGUGAGAAGGAUAAUCACACAUGAAUAUUAAUACAUGAGGAUCACCCAUGUAC [SSNG1/17-A3] (Eterna round: R96, puzzle: Same State NG 1)				18.4 nM	17.5 nM	18.5 nM
